Results from article PMC3081289 (PLoS ONE, 2011).

Target: T1, human Epidermal Growth Factor Receptor 2 (HER2), extracellular domain (Homo sapiens, UniProt P04626)
T1 construct: HER2 (human Epidermal Growth Factor Receptor 2), extracellular domain (ECD); also called HER2-ECD; HER2 ECD; source: expressed and purified as described [54]
Test: SPR; BIAcore 3000; VEGF_(8–109) or HER2 ECD immobilised on CM5 chips; serial dilutions of Fab in PBS with 0.05% Tween20 injected at 30 µl/min; 30°C; 1:1 Langmuir fit; KD from the ratio of kon and koff
Conditions: both partners purified

B1: bH1 Fab (HER2/VEGF dual specific variant of Herceptin) (Fab, V domains shown)
VH: not shown
VL: DIQMTQSPSSLSASVGDRVTITCRASQDIPRSISGYVAWYQQKPGKAPKLLIYWGSYLYSGVPSRFSGSGSGTDFTLTISSLQPEDFATYYCQQHYTTPPTFGQGTKVEIK
notes: Isolated from a phage library that randomised the light chain CDRs of Herceptin [22]
- Kd: 20 nM
